From patent US11015206B2, “Compositions and methods comprising sequences having hydroxyphenylpyruvate dioxygenase (HPPD) activity” (PIONEER HI-BRED INTERNATIONAL, INC., priority 2014, dated 2021)

Tests used:
[1] = system: 4-hydroxyphenylpyruvate dioxygenase (HPPD); assay: Insensitivity parameter (ON × OFF) and trait fitness (ON × OFF × kcat/KM or × kcat); assay type: biochemical, Z. mays; parameters: key to ON × OFF / Insensitivity, mesotrione, ON × OFF / Insensitivity, tembotrione, ON × OFF / Insensitivity, topramezone, ON × OFF / Insensitivity, sulcotrione, ON × OFF / Insensitivity, isoxaflutole (DKN), ON × OFF: insensitivity = ON rate ratio × OFF rate ratio (surrogate for KD); conditions: for Insensitivity, isoxaflutole (DKN), ON × OFF / Insensitivity, isoxaflutole (DKN), Trait fitness: inhibitor diketonitrile form of isoxaflutole (DKN); for Insensitivity, mesotrione, ON × OFF / Insensitivity, mesotrione, Trait Fitness: inhibitor mesotrione; for Insensitivity, sulcotrione, ON × OFF / Insensitivity, sulcotrione, Trait fitness: inhibitor sulcotrione; for Insensitivity, tembotrione, ON × OFF / Insensitivity, tembotrione, Trait fitness: inhibitor tembotrione; for Insensitivity, topramezone, ON × OFF / Insensitivity, topramezone, Trait Fitness: inhibitor topramezone
Method in brief: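 Calculated, not measured directly: ON rate ratio × OFF rate ratio gives an insensitivity parameter serving as a KD surrogate.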

[2] = system: 4-hydroxyphenylpyruvate dioxygenase (HPPD); assay: Estimate of kcat from initial rate at saturating hydroxyphenylpyruvate without inhibitor (ON rate ratio assay); assay type: biochemical, Z. mays
Method in brief: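 Reactions used 60 or 120 nM HPPD and saturating 100 μM hydroxyphenylpyruvate without inhibitor. kcat was estimated from the initial rate at the known enzyme concentration.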

[3] = Table 7, tembotrione, combinatorial variants
[4] = Table 7, combinatorial variants

Molecule | ON × OFF ([1]; Megatable 3, shuffled variants) | ON × OFF [1, 3] | Insensitivity, isoxaflutole (DKN), ON × OFF [1] | Insensitivity, isoxaflutole (DKN), Trait fitness [1] | Insensitivity, mesotrione, ON × OFF [1] | Insensitivity, mesotrione, Trait Fitness [1] | Insensitivity, sulcotrione, ON × OFF [1] | Insensitivity, sulcotrione, Trait fitness [1] | Insensitivity, tembotrione, ON × OFF [1] | Insensitivity, tembotrione, Trait fitness [1] | Insensitivity, topramezone, ON × OFF [1] | Insensitivity, topramezone, Trait Fitness [1] | ON × OFF × kcat ([1]; Megatable 3, shuffled variants) | ON × OFF × kcat [1, 3] | kcat ([2]; Megatable 3, shuffled variants) [s⁻¹] | kcat [2, 4] [s⁻¹]
P056028-A-03 (protein, Zea mays variant form created by artificial means.) MGPTPTATAAGAAVAAASAAEQAAFRLVGHRNFVRFNPRSDRFQTLAFHHVELWCADAASAAGRFSFALGVPLAARSDLSTGNSAHASLLLRSGSLSLLFTAPYAHGADAATAALPSFSAAAARRFAADHGLAVRAVALRVADAEDAFRASVAAGARPAFGPVDLGRGFRLAEVELYGDVVLRYVSYPDGGAGEPFLPGFEGVASPGAADLGLSRFDHIVGNVPELAPAAAYMAGFTGFHEFAEFTTEDVGTTESGLNSMALANNSENVLLPLNEPVHGTKRRSQIQTFLDHHGGPGVQHIALASDDVLRTLREMRARSAMGGFEFLPPPLSDYYDGVRRCAGDVLTEAQINECQELGVMVDRDDEGVLLQIFTKPVGDRPTFFLEIIQRIGCMEKDEKGQEYQKGGCGGFGKGNFGQLFKSIEDYEKSLERKRAAAAATAQGS | 0.181 | 0.181 | 0.34 | 7.25 | 0.70 | 14.8 | 0.75 | 15.7 | 0.32 | 6.81 | 0.38 | 7.97 | 4.36 | 4.36 | 0.4 | 0.4
P056028-A-01 (protein, Zea mays variant form created by artificial means.) MGPTPTATAAGAAVAAASAAEQAAFRLVGHRNFVRFNPRSDRFQTLAFHHVELWCADAASAAGRFSFALGVPLAARSDLSTGNSAHASLLLRSGSLSLLFTAPYAHGADAATAALPSFSAAAARRFAADHGLAVRAVALRVADAEDAFRASVAAGARPAFGPVDLGRGFRLAEVELYGDVVLRYVSYPDGAAGEPFLPGFEGVASPGAADYGLSRFDHIVGNVPELAPAAAYMAGFTGFHEFAEFTTEDVGTTESGLNSMALANNSENVLLPLNEPVHGTKRRSQIQTFLDHHGGPGVQHIALASDDVLRTLREMRARSAMGGFEFLPPPLSDYYDGVRRCAGDVLTEAQINECQELGVMVDRDDEGVLLQIFTKPVGDRPTFFLEIIQRIGCMEKDEKGQEYQKGGCGGFGKGNFGQLFKSIEDYEKSLEAKRAAAAATAQGS | 0.173 | 0.173 | 0.36 | 10.45 | 0.67 | 19.6 | 0.97 | 28.4 | 0.36 | 10.43 | 0.51 | 14.86 | 6.78 | 6.78 | 0.652 | 0.652
9070Q366E (protein, Zea mays variant form created by artificial means.) MGPTPTATAAGAAVAAASAAEQAAFRLVGHRNFVRFNPRSDRFQTLAFHHVELWCADAASAAGRFSFALGVPLAARSDLSTGNSAHASLLLRSGSLSLLFTAPYAHGADAATAALPSFSAAAARRFAADHGLAVRAVALRVADAEDAFRASVAAGARPAFGPVDLGRGFRLAEVELYGDVVLRYVSYPDGAAGEPFLPGFEGVASPGAADYGLSRFDHIVGNVPELAPAAAYMAGFTGFHEFAEFTTEDVGTTESGLNSMALANNSENVLLPLNEPVHGTKRRSQIQTFLDHHGGPGVQHIALASDDVLRTLREMRARSAMGGFEFLPPPLSDYYDGVRRCAGDVLTEAQINECQELGVMVDRDDEGVLLQIFTKPVGDRPTFFLEIIQRIGCMEKDEKGQEYQKGGCGGFGKGNFGQLFKSIEDYEKSLEAKQAAAAATAQGS | 0.208 | 0.208 | 0.17 | 3.40 | 0.72 | 14.0 | 0.50 | 9.69 | 0.27 | 5.25 | 0.26 | 5.04 | 4.18 | 4.18 | 0.335 | 0.335

Continued, in another order:

ON × OFF ([1]; Megatable 3, shuffled variants) | ON × OFF [1, 3] | Insensitivity, isoxaflutole (DKN), ON × OFF [1] | Insensitivity, isoxaflutole (DKN), Trait fitness [1] | Insensitivity, mesotrione, ON × OFF [1] | Insensitivity, mesotrione, Trait Fitness [1] | Insensitivity, sulcotrione, ON × OFF [1] | Insensitivity, sulcotrione, Trait fitness [1] | Insensitivity, tembotrione, ON × OFF [1] | Insensitivity, tembotrione, Trait fitness [1] | Insensitivity, topramezone, ON × OFF [1] | Insensitivity, topramezone, Trait Fitness [1] | Molecule | ON × OFF × kcat ([1]; Megatable 3, shuffled variants) | ON × OFF × kcat [1, 3] | kcat ([2]; Megatable 3, shuffled variants) [s⁻¹] | kcat [2, 4] [s⁻¹]
0.349 | 0.349 | 0.31 | 6.51 | 0.68 | 14.5 | 0.84 | 17.9 | 0.35 | 7.44 | 0.46 | 9.88 | P056028-D-03 (protein, Zea mays variant form created by artificial means.) MGPTPTATAAGAAVAAASAAEQAAFRLVGHRNFVRFNPRSDRFQTLAFHHVELWCADAASAAGRFSFALGVPLAARSDLSTGNSAHASLLLRSGSLSLLFTAPYAHGADAATAALPSFSAAAARRFAADHGLAVRAVALRVADAEDAFRASVAAGARPAFGPVDLGRGFRLAEVELYGDVVMRYVSYPDGAAGEPFLPGFEGVASPGAADYGLNRFDHIVGNVPELAPAAAYMAGFTGFHEFAEFTTEDVGTTESGLNSMALANNSENVLLPLNEPVHGTKRRSQIQTFLDHHGGPGVQHIALASDDVLRTLREMRARSAMGGFEFLPPPLSDYYDGVRRCAGDVLTEAQINECQELGVMVDRDDEGVLLQIFTKPVGDRPTFFLEIIQRIGCMEKDEKGQEYQKGGCGGFGKGNFGQLFKSIEDYEKSLEAKQAAAAATAQGS | 6.83 | 6.83 | 0.327 | 0.327
0.121 | 0.121 | 0.25 | 7.93 | 0.67 | 21.2 | 0.68 | 21.6 | 0.26 | 8.28 | 0.38 | 12.12 | P056028-B-09 (protein, Zea mays variant form created by artificial means.) MGPTPTATAAGAAVAAASAAEQAAFRLVGHRNFVRFNPRSDRFQTLAFHHVELWCADAASAAGRFSFALGVPLAARSDLSTGNSAHASLLLRSGSLSLLFTAPYAHGADAATAALPSFSAAAARRFAADHGLAVRAVALRVADAEDAFRASVAAGARPAFGPVDLGRGFRLAEVELYGDVVLRYVSYPDGAAGEPFLPGFEGVASPGAADYGLSRFDHIVGNVPELAPAAAYMAGFTGFHEFAEFTTEDVGTTESGLNSMALANNSENVLLPLNEPVHGTKRRSQIQTFLDHHGGPGVQHIALASDDVLRTLREMRARSAMGGFEFLPPPLSDYYDDVRRCAGDVLTEAQINECQELGVMVDRDDEGVLLQIFTKPVGDRPTFFLEIIQRIGCVEKDEKGQEYQKGGCGGFGKGNFGQLFKSIEDYEKSLEAKRAAAAATAQGS | 4.19 | 4.19 | 0.575 | 0.575
